{
  "source": "patent US6984774",
  "system": "Ac transposase (Zea mays)",
  "assay": "cell_activity",
  "conditions": "in Arabidopsis; GUS recombination stimulated over no-Ac control; Ds excision footprint confirmed by PCR and sequencing; binding not measured directly",
  "data": [
    {"substance": "Ds element in GU-Ds-US construct", "values": [
      {"measurement": "activity", "value": "> 1000", "unit": "fold"}
    ]}
  ]
}
